Key:
[1] = Evaluation of adsorbability with respect to cell culture surface (OPA fluorescence); format: physicochemical; conditions: FIG. 1; for adsorbability with respect to the plate: 0 to 200 pmol/cm^2 added, 2 hours at 37° C., washed twice with PBS
Protocol: Each of the polypeptides of RCP-1 to RCP-11 and RCP-21 to RCP-26 obtained as above was diluted with a predetermined buffer such that they could be added to wells at a predetermined final concentration of 0 pmol/cm^2 to 200 pmol/cm^2. Thereafter, each of the polypeptides was added in an amount of 64 μL to a plasma-treated 96-well plate made of polystyrene (Tissue Culture-Treated, Falcon). Each of the polypeptides was allowed to adsorb onto the plate by being incubated for 2 hours at 37° C., and then the wells were washed twice with PBS, thereby obtaining surfaces coated with each of the polypeptides of RCP-1 to RCP-11 and RCP-21 to RCP-26.
Among the surfaces coated with each of the polypeptides obtained as above, the surfaces coated with RCP-1 and RCP-21 to RCP-26 were applied with 64 μL of a borate buffer and 64 μL of 1 N NaOH, followed by incubation for 24 hours at 80° C. and 100% humidity. After the resultant was air-cooled, 75 μL of a borate buffer was added to each well, and 50 μL of a reaction solution obtained by mixing OPA (o-phthalaldehyde: Wako Pure Chemical Industries, Ltd./methanol solution (160 mg/ml)) with N-acetyl-L-cysteine (NAC: Wako Pure Chemical Industries, Ltd.)/borate buffer solution (2 mg/ml) at a ratio of 1:100 (mass ratio) was further added thereto. After incubation for 30 minutes at 40° C., the fluorescence intensity thereof was measured by using an Envision Multilabel Counter (PerkinElmer Inc.) (excitation 355 nm/fluorescence 486 nm). A calibration curve was separately prepared from each of the polypeptide solutions so as to calculate the amount of the polypeptide adsorbed. In FIG. 1, a black rhombus indicates RCP-1, a black square indicates RCP-21, a black triangle indicates RCP-22, a black circle indicates RCP-23, a white rhombus indicates RCP-24, a white square indicates RCP-25, and a white triangle indicates RCP-26.

[2] = test system: human iPS cells ("Tic"); test: Cell adhesiveness evaluation 1 (ALP activity of adhesive iPS cells); format: cell-based; conditions: 30,000 cells/well, 24 hours, n=3
Protocol: The cell adhesiveness of human iPS cells (“Tic”: Cell No. JCRB 1331: from National Institute of Biomedical Innovation. [567-0085, 7-6-8 Asagi Saito Ibaraki-City Osaka]) with respect to the aforementioned polypeptides was evaluated in the following manner.
As feeder cells for retaining the human iPS cells, EmbryoMax (registered trademark) (early mouse embryonic fibroblasts: resistant to hygromycin, treated with mitomycin C, derived from C57/BL6, third passage) (Millipore Corporation) was used. By using DMEM (Invitrogen) and a 10% (v/v) fetal bovine serum medium, the feeder cells were cultured for 24 hours and attached to a T25 flask (Corning Incorporated). As a medium for the human iPS cells, the one obtained by adding FGF-2 (Sigma-Aldrich Co, LLC.) to a medium composed as shown in Table 6 at a final concentration of 10 ng/ml was used.
By using the aforementioned medium, the human iPS cells were retained and cultured in a 5% (v/v, the same unit will be used hereinafter) CO2 incubator at 37° C. Except for the day after the seeding of the iPS cells, the medium was replaced every day. The subculture operation was performed by exfoliating the cells by using Dispase II (neutral protease Grade II, Roche) and separating the cells in an appropriate size by a pipetting operation.
The iPS cells cultured as described above were treated with TrypLE Select (Invitrogen) for 5 minutes at 37° C. and separated into a single cell. After being subjected to centrifugation for 2 minutes at 300 rpm, the cells were collected and suspended in TeSR2 (a medium not containing a heterogeneous animal-derived component and a serum component, STEMCELL Technologies.) containing Y-27362 ((R)-(+)-trans-N-(4-pyridyl)-4-(1-aminoethyl)-cyclohexane carboxamide.2HCl.H2O, an Rho binding kinase inhibitor, Wako Pure Chemical Industries, Ltd.) at a final concentration of 10 μM.
Each of RCP-1 to RCP-11, RCP-21, RCP-25, and RCP-26 as control, human vitronectin (extracted from human serum, BD Biosciences), and recombinant laminin (rLaminin-5: Oriental Yeast Co., ltd. and Human Recombinant Laminin-511: BIOLAMINA AB) was added to and suspended in a predetermined buffer (a dialysis buffer used in <GRAVY value and aggregation characteristics> described above for RCP-1 to RCP-11, and PBS for RCP-21, RCP-25, human vitronectin, and recombinant laminin) at the concentration shown in Table 7, thereby preparing samples 1 to 17. The samples were added to the respective wells of a 96-well plate and adsorbed onto the plate by being held for 2 hours at 37° C.
Into the respective wells of the 96-well plate treated with the peptides, iPS cells were seeded at a cell density of 30,000 cells/well. After the cells were cultured for 24 hours, the nonadhesive cells were washed off with PBS, and only the adhesive cells were immobilized by using 4% (v/v) paraformaldehyde (Wako Pure Chemical Industries, Ltd.). By using an Attophos (registered trademark) AP Fluorescent Substrate System (Promega Corporation), the ALP activity was calculated, and from the calibration curve, the number of undifferentiated iPS cells having the ALP activity was calculated. In Table 7, the cell adhesion rate is expressed as a ratio calculated by regarding the cell adhesion rate obtained from the sample 15 using natural vitronectin as being 100%. n=3.

[3] = test system: iPS cells; test: Evaluation of maintenance of undifferentiated state (reference examples); format: cell-based, human
Protocol: iPS cells collected in the same manner as in <Cell adhesiveness evaluation 1> were suspended in TeSR2. The iPS cells were seeded into 6-well plate (Tissue culture-treated, Falcon), onto which each of the samples 1, 2, 5, 6, and 7 used in <Cell adhesiveness evaluation 1> was adsorbed in the same manner as in <Cell adhesiveness evaluation 1>, and cultured in a CO2 incubator at 37° C. Except for the day after the seeding, the medium was replaced every day. In the same method as described above, the cells were subcultured every six days.
After being cultured for 1 month under the conditions described above, the cells were immobilized using 4% paraformaldehyde and treated with 1% Triton-X/PBS so as to enhance the membrane permeability. After the cells were subjected to a blocking treatment using an Image IT Signal Enhancer (Invitrogen), an anti-human NANOG antibody (AF 1997, R&D Systems, Inc.), an Alexa Fluor 555 binding rabbit anti-goat IgG antibody (Invitrogen), and DAPI (4′,6-diamidino-2-phenylindole, Dojindo Molecular Technologies, Inc.) were added thereto for labeling, and the cells were imaged using a fluorescence microscope.
FIGS. 3A and 4A show the iPS cells cultured on RCP-1; FIGS. 3B and 4B show the iPS cells cultured on RCP-11; FIGS. 3C and 4C show the iPS cells cultured on natural human vitronectin; FIGS. 3D and 4D show the iPS cells cultured on rLaminin-5; and FIGS. 3E and 4E show the iPS cells cultured on rLaminin-511. The scale bar in the images indicates […]. In FIGS. 3A to 3E, the images on the left side are full images of the colony, and the images on the right side are magnified images. In FIGS. 4A to 4E, the images on the left side are images of the cells stained with DAPI, and the images on the right side are images of the cells stained with an anti-NANOG antibody. The scale bar in FIGS. 3A to 4E indicates 200 μm.

[4] = test system: iPS cells; test: Cell adhesiveness evaluation 3 (RCP-1 added amount); format: cell-based, human; conditions: added amount 130 pmol/cm^2; this surface = 100%; n=3
Protocol: The cell adhesiveness was evaluated in the same manner as in <Cell adhesiveness evaluation 1>, except that RCP-1 was used after the concentration thereof was adjusted to 125 pmol/cm^2 to 1,000 pmol/cm^2 by using PBS. In Table 10, the cell adhesion rate is expressed as a ratio calculated by regarding a cell adhesion rate with respect to the cell culture surface, onto which natural vitronectin is adsorbed at a concentration of 130 pmol/cm^2, as being 100%. n=3.

[5] = added amount 200 pmol/cm^2, natural vitronectin (sample 15) = 100%

Molecule	amount adsorbed onto the plate as fraction of the amount of polypeptides containing SEQ ID NO: 2 [1]	Cell adhesion rate (%) [2, 5]	adsorbability with respect to the plate [1]	also measured
RCP-24: comparative polypeptide, SEQ ID NO: 29; vitronectin positions 1-55 (GPLGDQESCKGRCTEGFNVDKKCQCDELCSYYQSCCTDYTAECKPQVTRGDVFTMPEDE; Vitronectin-derived Recombinant Protein (RCP-24)) [reference compound]	about ¼	–	–	–
Natural vitronectin: human vitronectin (extracted from human serum, BD Biosciences) (protein, listed as Homo sapiens, glycosylated) DQESCKGRCTEGFNVDKKCQCDELCSYYQSCCTDYTAECKPQVTRGDVFTMPEDEYTVYDDGEEKNNATVHEQVGGPSLTSDLQAQSKGNPEQTPVLKPEEEAPAPEVGASKPEGIDSRPETLHPGRPQPPAEEELCSGKPFDAFTDLKNGSLFAFRGQYCYELDEKAVRPGYPKLIRDVWGIEGPIDAAFTRINCQGKTYLFKGSQYWRFEDGVLDPDYPRNISDGFDGIPDNVDAALALPAHSYSGRERVYFFKGKQYWEYQFQHQPSQEECEGSSLSAVFEHFAMMQRDSWEDIFELLFWGRTSAGTRQPQFISRDWHGVPGQVDAAMAGRIYISGMAPRPSLAKKQRFRHRNRKGYRSQRGHSRGRNQNSRRPSRATWLSLFSSEESNLGANNYDDYRMDWLVPATCEPIQSVFFFSGDKYYRVNLRTRRVDTVDPPYPRSIAQYWLGCPAPGHL	–	–	–	Cell adhesion rate (%) ([2]; added amount 130 pmol/cm^2, this sample = 100%): 100 ± 5.5%; form of iPS cell colony ([3]; TeSR2, subcultured every six days, FIGS. 3A to 3E): form specific to undifferentiated cells; NANOG expression ([3]; cultured for 1 month in TeSR2, anti-NANOG staining, FIGS. 4A to 4E): strongly expressed NANOG in the entirety of the colony; Cell adhesion rate (%) [4]: 100 ± 5.5%
RCP-23: comparative polypeptide, SEQ ID NO: 28; vitronectin positions 1-55, 56-129 (protein, Vitronectin-derived Recombinant Protein (RCP-23)) GPLGDQESCKGRCTEGFNVDKKCQCDELCSYYQSCCTDYTAECKPQVTRGDVFTMPEDEYTVYDDGEEKNNATVHEQVGGPSLTSDLQAQSKGNPEQTPVLKPEEEAPAPEVGASKPEGIDSRPETLHPGRPQP	about ¼	–	–	–
RCP-26: comparative polypeptide, SEQ ID NO: 31; vitronectin positions 269-459 (protein, Vitronectin-derived Recombinant Protein (RCP-26)) GPLGPSQEECEGSSLSAVFEHFAMMQRDSWEDIFELLFWGRTSAGTRQPQFISRDWHGVPGQVDAAMAGRIYISGMAPRPSLAKKQRFRHRNRKGYRSQRGHSRGRNQNSRRPSRATWLSLFSSEESNLGANNYDDYRMDWLVPATCEPIQSVFFFSGDKYYRVNLRTRRVDTVDPPYPRSIAQYWLGCPAPGHL	–	9.4 ± 2.9%	excellent adsorbability	–
RCP-25: comparative polypeptide, SEQ ID NO: 30; vitronectin positions 56-459 (protein, Vitronectin-derived Recombinant Protein (RCP-25)) GPLGYTVYDDGEEKNNATVHEQVGGPSLTSDLQAQSKGNPEQTPVLKPEEEAPAPEVGASKPEGIDSRPETLHPGRPQPPAEEELCSGKPFDAFTDLKNGSLFAFRGQYCYELDEKAVRPGYPKLIRDVWGIEGPIDAAFTRINCQGKTYLFKGSQYWRFEDGVLDPDYPRNISDGFDGIPDNVDAALALPAHSYSGRERVYFFKGKQYWEYQFQHQPSQEECEGSSLSAVFEHFAMMQRDSWEDIFELLFWGRTSAGTRQPQFISRDWHGVPGQVDAAMAGRIYISGMAPRPSLAKKQRFRHRNRKGYRSQRGHSRGRNQNSRRPSRATWLSLFSSEESNLGANNYDDYRMDWLVPATCEPIQSVFFFSGDKYYRVNLRTRRVDTVDPPYPRSIAQYWLGCPAPGHL	–	13.2 ± 3.4%	excellent adsorbability	–
